Laboratory results taken from patent US7271245B2, “Methods and compositions for inhibition of metastasis” (The Scripps Research Institute, priority 2004, dated 2007).

Tests used:
tumor cell integrin αvβ3 = target: T1, tumor cell integrin αvβ3 (Homo sapiens, UniProt P05106+P06756); assay: Flow cytometry, scFv binding to BMS cells in fresh human plasma; details: saturable binding
T1 construct: Primary metastatic cells from blood samples of stage IV breast cancer patients (BCM1, BCM2, BMS) were isolated; endogenous in cells; host or cells: BMS cells (primary metastatic breast cancer cells from patient blood)
T1 sequence (P06756 31-889 limits assumed): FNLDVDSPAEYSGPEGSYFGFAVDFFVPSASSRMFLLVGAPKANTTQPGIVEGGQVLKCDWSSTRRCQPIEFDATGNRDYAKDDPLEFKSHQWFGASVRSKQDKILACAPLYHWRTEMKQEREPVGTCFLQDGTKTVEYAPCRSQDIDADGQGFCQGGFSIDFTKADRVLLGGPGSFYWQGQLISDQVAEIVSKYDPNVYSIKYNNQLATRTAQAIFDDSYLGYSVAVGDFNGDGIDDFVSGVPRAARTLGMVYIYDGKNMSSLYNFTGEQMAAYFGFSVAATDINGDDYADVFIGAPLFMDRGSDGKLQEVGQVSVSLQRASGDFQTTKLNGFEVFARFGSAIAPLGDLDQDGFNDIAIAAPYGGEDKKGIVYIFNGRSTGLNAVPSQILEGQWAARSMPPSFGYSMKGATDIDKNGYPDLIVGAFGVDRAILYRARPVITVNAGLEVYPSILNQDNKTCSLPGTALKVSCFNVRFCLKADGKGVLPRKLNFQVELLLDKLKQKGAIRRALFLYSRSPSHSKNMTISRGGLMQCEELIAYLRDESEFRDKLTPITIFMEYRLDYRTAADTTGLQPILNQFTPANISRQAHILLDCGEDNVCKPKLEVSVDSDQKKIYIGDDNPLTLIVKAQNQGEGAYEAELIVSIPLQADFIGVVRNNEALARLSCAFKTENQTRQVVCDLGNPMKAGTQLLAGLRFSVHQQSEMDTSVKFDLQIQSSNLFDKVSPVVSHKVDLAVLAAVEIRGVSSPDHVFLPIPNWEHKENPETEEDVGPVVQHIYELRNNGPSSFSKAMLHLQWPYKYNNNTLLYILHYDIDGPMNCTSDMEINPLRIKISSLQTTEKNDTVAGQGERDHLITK
T1 sequence (P06756 891-1048 partner limits assumed): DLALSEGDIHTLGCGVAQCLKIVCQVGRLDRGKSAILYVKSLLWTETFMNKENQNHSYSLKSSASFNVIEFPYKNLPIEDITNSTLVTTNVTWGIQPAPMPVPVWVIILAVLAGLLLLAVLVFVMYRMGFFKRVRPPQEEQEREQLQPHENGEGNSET
T1 sequence (P05106 27-788): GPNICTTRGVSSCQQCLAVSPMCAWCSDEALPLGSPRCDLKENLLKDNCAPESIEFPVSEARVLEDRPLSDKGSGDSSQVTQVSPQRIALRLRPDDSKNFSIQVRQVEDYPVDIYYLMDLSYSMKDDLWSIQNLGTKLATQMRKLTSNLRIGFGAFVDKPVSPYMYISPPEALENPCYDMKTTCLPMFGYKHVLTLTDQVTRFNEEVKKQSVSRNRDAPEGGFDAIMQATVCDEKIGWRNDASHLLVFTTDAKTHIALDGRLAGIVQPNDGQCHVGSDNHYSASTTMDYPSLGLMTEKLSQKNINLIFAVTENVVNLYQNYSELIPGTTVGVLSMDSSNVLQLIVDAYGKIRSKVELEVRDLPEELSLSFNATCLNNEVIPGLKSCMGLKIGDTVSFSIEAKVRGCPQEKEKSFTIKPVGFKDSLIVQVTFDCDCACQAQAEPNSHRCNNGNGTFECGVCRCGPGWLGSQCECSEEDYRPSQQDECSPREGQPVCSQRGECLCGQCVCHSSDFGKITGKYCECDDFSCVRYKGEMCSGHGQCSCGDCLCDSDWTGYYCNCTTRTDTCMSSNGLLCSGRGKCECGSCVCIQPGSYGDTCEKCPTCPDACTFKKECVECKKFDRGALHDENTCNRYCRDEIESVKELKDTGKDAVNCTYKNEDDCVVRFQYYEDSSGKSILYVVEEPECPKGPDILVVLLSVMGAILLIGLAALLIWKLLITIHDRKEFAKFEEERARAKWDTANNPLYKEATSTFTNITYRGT
Protocol: FIG. 4. Patient derived ligand mimetic scFvs Bc-12 and Bc-15 against activated αvβ3 are internalized and bind to breast cancer cells in human plasma and affect breast cancer survival. Flow cytometric analysis with human metastatic breast cancer cells (BMS) isolated from a patient blood sample. All binding and washing steps were done in fresh human plasma prepared from blood anticoagulated with 50 nM PPACK.
Flow cytometry. scFv binding to human tumor cells was analyzed by flow cytometry, initially with cloned scFv phage and then with purified scFv protein. Per sample, 2×10^5 tumor cells were blocked with goat serum and incubated either with scFv phage (2-5×10^10) (1 h at RT) followed by mouse anti-M13 mAb (Serotec) (30 min on ice) and goat FITC-anti mouse (Pierce) (30 min on ice), or with purified scFv (1.25 to 40 μg/ml, routinely 10 to 15 μg/ml) (45 min on ice), followed by mouse anti-FLAG mAb M2 (Sigma) (30 min on ice) and goat FITC-anti mouse. […] All samples were counter stained with propidium iodide (PI) and analyzed on a Becton-Dickinson FACScan, with live gate set to exclude PI positive cells.
Antimetastatic activity of scFv antibodies against activated αvβ3 inhibit hematogenous breast cancer metastasis in vivo. […] The antibodies bound the cells in a saturable manner with half maximal binding measured at 40 nM scFv (1 μg/ml) (FIG. 4).

[1] = system: BMS human breast cancer cells; assay: Experimental metastasis in vivo (lung colonization); parameters: species or system mouse
Protocol: FIGS. 5A, 5B, 5C. ScFvs Bc-12 and Bc-15 prevent hematogenous breast cancer metastasis. (A) Left: Lungs of female SCID mice 32 days after i.v. injection with 1×10^5 BMS human breast cancer cells. The mice were treated with 50 μg Bc-12 or Bc-15 in 100 μl PBS (i.v.) on days 1, 2, 3 and 4. Controls received PBS only. Right: Numbers of lung surface metastases for each animal, horizontal lines indicate the median number of metastases per group. […] (B) Left: Histological sections of the above mouse lungs, stained with hematoxylin/eosin. Metastases were counted in six sets of three consecutive sections separated by 140 μm for each lung. Right: Number of metastases counted in sections of individual lungs, horizontal lines indicate median number of metastases per animal group. […] (C) Effect of Bc-15 treatment on established breast cancer metastasis in the lungs. Female SCID mice were injected i.v. with 5×10^5 DsRed2-tagged MDA-MB 435 breast cancer cells expressing constitutively activated integrin αvβ3D723R. Mice were treated on day 7, 9, 11 and 14, 16, 18 by i.v. injections of scFv Bc-15 or its RGE mutant, Mut-15 (40 μg/dose). Metastatic foci were enumerated by fluorescence microscopy on day 19. Left: Images of typical tumor foci within the lung tissue in Mut-15 (top) or Bc-15 treated mice (bottom) (bar: 50 μm). Right: Number of metastatic foci within the lung tissue of each animal, horizontal line: median number of metastases per group.
Experimental metastasis in vivo. 1×10^5 BMS human metastatic breast cancer cells were injected into the lateral tail veins of 9 week old female C.B17/lcrTac-Prkdc scid mice (Taconic Farms) (n=8 to 10) together with a 50 μg bolus dose of scFv. I.v. Injections of 50 μg scFv bolus doses were repeated on days 2, 3 and 4 of the experiment. Control animals received vehicle only (PBS). For in vivo use, endotoxin was removed from scFv preparations on Detoxy-Gel resin (Pierce). Remaining traces ranged from 0.001 to 0.07 EU endotoxin/mg scFv (LAL test, Bio Whittaker). On day 32, mice were euthanized, dissected, the lungs excised, fixed in Bouin's solution, and metastatic foci counted at the lung surface under a dissecting microscope. The same lungs were embedded in paraffin, and 10 μm sections were cut and stained with hematoxylin/eosin. Per lung, 7 sets of three consecutive sections were collected, separated by 140 μm. The sections were randomized and coded, and the total number of metastatic foci counted.
To test directly whether targeting activated integrin αvβ3 with the ligand mimetic antibodies Bc-12 and-15 affects target organ colonization by circulating metastatic breast cancer cells, 1×10^5 BMS human breast cancer cells were injected intravenously into female C.B-17 SCID mice, together with 50 μg sterile, endotoxin free preparations of Bc-12 or Bc-15 (n=8-10 mice per group). At an average blood volume of 2 ml per mouse, this provides an initial scFv concentration of 1 μM. The clearance time for scFv antibody fragments in the circulation is less than 1 h. Kortt et al., Biomol. Eng, 18: 95-108, 2001. Tumor cells may remain in the circulation for several days. Therefore, scFv antibody injections (50 μg bolus doses, i.v.) were repeated on the second, third and fourth day. […] After 32 days, the mice were euthanized, dissected and analyzed by gross examination. […] The lungs were excised, fixed, and metastatic foci counted at the lung surface. Each of the control treated mice had tumor foci on their lungs (range: 8 to 68 foci per lung). In stark contrast, only two animals in the Bc-12 treated group, and 1 animal in the Bc-15 treated group had one visible nodule at their lung surface (FIG. 5A).
Per lung, six sets of three consecutive sections, separated by 140 μm, were collected. The sections were randomized and coded, and the total number of metastatic foci counted. All control animals had metastases in their lung tissues (range: 7 to 48 counts per lung), and those were of considerable size (FIG. 5B top image). […]

- half maximal binding (tumor cell integrin αvβ3): 1 µg/mL
- EC50 (tumor cell integrin αvβ3; read-out: half maximal binding): 40 nM
B1: Bc-12: patient derived human scFv antibody against activated αvβ3 with RGD motif in CDR-H3; cDNA ATCC PTA-6303 (protein)
scFv: MAQVQLVQSGAEVKKPGASVKVSCKASGYTFSNYGITWVRQAPGQGLEWMGWINNGNTHYAQKFQGRVTMTTDTSTSTAYMELRSLRSDDTAVYYCARDPRGDDEPYWGQGTLVTVSSGGGGSGGGGSGGGGSEIVLTQSPLSLPVTLGQPASISCRSSQNLVYSDGNTYLSWFQQRPGQSPRRLIYKVSNRDSGVPDRFSGSGSGTDFTLKISRVEAEDIGVYYCMQGTHWPPRTFGQGTKVEIKRGLGGLVDYKDDDDK
- health status during the experiment ([1]; 50 μg i.v. days 1-4, 32 days): appeared healthy
- number of lung surface metastases versus PBS control ([1]; 50 μg i.v. days 1-4, day 32, P<0.001 Kruskal Wallis): significantly fewer metastases
- number of metastases in lung sections versus PBS control ([1]; P<0.005 Kruskal Wallis): significantly fewer detectable metastases
- animals with one visible nodule at lung surface ([1]; SCID mice, 50 μg i.v. days 1-4, day 32, n=8-10 per group, controls 8 to 68 foci per lung): two
- gross examination at dissection ([1]; day 32): No obvious abnormalities
- mice with microscopically detectable metastases in lung tissue ([1]; histological sections, day 32, all controls positive): 3 of 10
